According to PMC11856660 (PLOS Pathogens, 2025):

Target: HCoV-229E nsp15 protein, H250A mutant (recombinant, hexameric) (human coronavirus 229E (HCoV-229E))
Assay: […] (25 mM HEPES pH 8, 300 mM NaCl, 10% glycerol, 1 mM TCEP); […]; 20 °C; […]

HCoV-229E nsp15 protein, H250A mutant (recombinant, hexameric) (enzyme)
percent hexameric: > 98%
stoichiometry N: 6
